The values that follow come from doi:10.1101/2022.09.14.507982 (bioRxiv, 2022).

“And” between values parts separate entries of the source, which are not always exact repeats. Equal values may be shown once.

This assay has as its target F-actin (filamentous actin from rabbit muscle) (rabbit, UniProt P68135 1-377). The assay is described as follows: co-sedimentation.

B1: 90 kDa isoform of palladin (natural protein)
chain: MSALASRSAPAMQSSGSFNYARPKQFIAAQNLGPASGHGTPASSPSSSSLPSPMSPTPRQFGRAPVPPFAQPFGAEPEAPWGSSSPSPPPPPPPVFSPTAAFPVPDVFPLPPPPPPLPSPGQASHCSSPATRFGHSQTPAAFLSALLPSQPPPAAVNALGLPKGVTPAGFPKKASRTARIASDEEIQGTKDAVIQDLERKLRFKEDLLNNGQPRLTYEERMARRLLGADSATVFNIQEPEEETANQEYKVSSCEQRLISEIEYRLERSPVDESGDEVQYGDVPVENGMAPFFEMKLKHYKIFEGMPVTFTCRVAGNPKPKIYWFKDGKQISPKSDHYTIQRDLDGTCSLHTTASTLDDDGNYTIMAANPQGRISCTGRLMVQAVNQRGRSPRSPSGHPHVRRPRSRSRDSGDENEPIQERFFRPHFLQAPGDLTVQEGKLCRMDCKVSGLPTPDLSWQLDGKPVRPDSAHKMLVRENGVHSLIIEPVTSRDAGIYTCIATNRAGQNSFSLELVVAAKEAHKPPVFIEKLQNTGVADGYPVRLECRVLGVPPPQIFWKKENESLTHSTDRVSMHQDNHGYICLLIQGATKEDAGWYTVSAKNEAGIVSCTARLDVYTQWHQQSQSTKPKKVRPSASRYAALSDQGLDIKAAFQPEANPSHLTLNTALVESEDL
Take B1: the Kd is 2.11 µM and 3.1 µM.

As usually defined, the Kd is the constant that tells how readily two partners part at equilibrium. Read a low Kd as higher affinity.
